Biological target: T1, Cortactin isoform 2 (recombinant, purified from baculovirally infected insect cells)
T1 chain: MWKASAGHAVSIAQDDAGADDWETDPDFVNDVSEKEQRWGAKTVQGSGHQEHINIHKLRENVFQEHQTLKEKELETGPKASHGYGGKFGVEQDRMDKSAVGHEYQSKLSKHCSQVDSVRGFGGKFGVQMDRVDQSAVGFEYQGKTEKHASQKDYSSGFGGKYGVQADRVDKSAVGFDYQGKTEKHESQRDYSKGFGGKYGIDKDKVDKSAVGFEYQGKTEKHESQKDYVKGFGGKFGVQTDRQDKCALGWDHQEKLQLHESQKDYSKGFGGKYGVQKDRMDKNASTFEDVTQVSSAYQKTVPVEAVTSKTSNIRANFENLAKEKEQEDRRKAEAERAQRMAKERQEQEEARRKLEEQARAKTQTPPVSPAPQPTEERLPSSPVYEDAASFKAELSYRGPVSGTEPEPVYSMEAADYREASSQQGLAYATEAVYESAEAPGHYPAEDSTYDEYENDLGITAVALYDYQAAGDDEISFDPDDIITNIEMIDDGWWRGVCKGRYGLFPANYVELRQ

B1: ARG, wild type, constructed from mouse cDNA (recombinant) (protein)
chain: MGQQVGRVGEAPGLQQPQPRGIRGSSAARPSGRRRDPAGRTADAGFNVFTQHDHFASCVEDGFEGDKTGGSSPEVLHRPFGCDAESQALNEAIRWSSKENLLGATESDPNLFVALYDFVASGDNTLSITKGEKLRVLGYNQNGEWSEVRSKNGQGWVPSNYITPVNSLEKHSWYHGPVSRSAAEYLLSSLINGSFLVRESESSPGQLSISLRYEGRVYHYRINTTTDSKVYVTAESRFSTLAELVHHHSTVADGLVTTLHYPAPKCNKPTVYGVSPIHDKWEMERTDITMKHKLGGGQYGEVYVGVWKKYSLTVAVKTFKEDTMEVEEFLKEAAVMKEIKHPNLVQLLGVCTLEPPFYIVTEYMPYGNLLDYLRECSREEVTAVVLLYMATQISSAMEYLEKKNFIHRDLAARNCLVGENHVVKVADFGLSRLMTGDTYTAHAGAKFPIKWTAPESLAYNTFSIKSDVWAFGVLLWEIATYGMSPYPGIDLSQVYDLLEKGYRMEQPEGCPPKVYELMRACWKWSPADRPSFAETHQAFETMFHDSSISEEVAEELGRTASSSSVVPYLPRLPLLPSKTRTLRKQGENKENLDGGLDAAESLASSSAPAGFIRSTQASSGSPALPRKQRDKSPSSLLEDAKETCFTRDRKGGFFSSFMKKRNAPTPPKRSSSFREMENQPHKKYELTGNFSPVASLQNADGFSVAPSQQEPNLVPAKCYGGSFAQRNLCADDDSGGGGGSGTAGGGWSGITGFFTPRLIKKTLGLRAGKPTASDDTSKPFPRSNSTSSMSSGLPEQDRMAMTLPRNCQRSKLQLERTVSTSSQPEENVDRANDMLPKKSEEGAAPARERPKAKLLPRGATALPLRAPDPAITESDSPGVGVAGVAAAPKGKERNGGTRLGVAGVPEDGEQLGWSSPAKAVAVLPTTHNHKVPVLISPTLKHTPADVQLIGTDSQGNKFKLLSEHQVTSSGDKDRPRRVKPKCAPPPPPVMRLLQHPSTCSDPEEEPTAPPAGQHTPETQEGGKKAAPGPVPSSGKPGRPVMPPPQVPLPTSSISPAKMANGTAGTKVALRKTKQAAEKISADKISKEALLECADLLSSAITEPVPNSQLVDTGHQLLDYCSGYVDSIPQTRNKFAFREAVSKLELSLQELQVSSTAAGVPGTNPVLNNLLSCVQEISDVVQR
  KM (steady-state in vitro kinase assay): KM of 110 nM and 60 nM for ABL and ARG, respectively
  kcat (steady-state in vitro kinase assay): The kcat for ABL and ARG is 0.05 min-1

Source: patent US20060141529
